The values that follow are results of earlier work, collected in patent publication US20240117402A1, “METHODS FOR (POLY) PEPTIDE TANDEM LIGATION AND CYCLIZATION” (Nanyang Technological University, priority 2021, published 2024).

The conditions of the data set: cyclization of a model peptide; cited from earlier work.

B1: VyPAL2: plant legumain from the Viola Yedoensis family, highly active peptidyl asparaginyl ligase (SEQ ID NO:1) (protein)
chain: DSIGTRWAVLIAGSKGYHNYRHQADVCHMYQILRKGGVKDENIIVFMYDDIAYNESNPFPGIIINKPGGENVYKGVPKDYTGEDINNVNFLAAILGNKSAIIGGSGKVLDTSPNDHIFIYYADHGAPGKIGMPSKPYLYADDLVDTLKQKAATGTYKSMVFYVEACNAGSMFEGLLPEGTNIYAMAASNSTEGSWITYCPGTPDFPPEFDVCLGDLWSITFLEDCDAHNLRTETVHQQFELVKKKIAYASTVSQYGDIPISKDSLSVYM
modifications: VyPAL2 core domain
Turning to B1, the catalytic efficiency is 274,325 M^−1 s^−1.
